B1: CLINT1 (parent)
chain: VVTSAREHIYDLRSLENYHFVDEH
B2: GNB5 (parent)
chain: YYPSGDAFASGSDDATCRLYDLRA

Variants of: B1
Test: protein stability index of a GFP-peptide fusion (GPS, HEK-293T) (PSI 1-6); higher = more stable
Settings: c terminus: a fixed tail appended
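Note: lentivirally expressed fusions sorted by FACS into six bins by GFP to DsRed ratio, PSI derived from sequencing read proportions per bin multiplied by bin number.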

Protein stability index, by site and new letter:
E23: M 1.9 | G 3.21 | P 1.96 | Y 1.26 | Q 2.55 | W 3.37 | K 2.33 | T 2.2 | H 2.21 | D 2.86 | C 1.64 | V 2.07 | A 2.64 | S 2.36 | I 2.54 | R 1.72 | N 1.96 | F 2.51 | L 1.93
V21: H 2.98 | R 2.54 | Y 2.47 | Q 3.25 | W 2.54 | F 2.48 | C 2.78 | E 3.79 | L 2.82 | K 2.53 | A 3.44 | G 3.49 | S 2.96 | N 3.44 | D 3.74 | I 2.52 | P 3.38 | T 2.84 | M 2.54
L15: W 2.56 | H 3.58 | N 3.1 | K 3.36 | P 3.31 | R 3.53 | E 3.46 | V 3.04 | I 2.99 | Y 2.91 | M 2.62 | S 2.95 | D 3.8 | T 3.2 | G 3.56 | A 3.32 | Q 3.66 | C 3.05 | F 2.4
D22: P 2.58 | S 2.31 | M 1.66 | I 1.09 | W 3.21 | V 2.3 | N 2.35 | C 1.98 | A 2.1 | Y 1.5 | E 2.42 | G 2.85 | T 1.75 | Q 2.59 | F 2.2 | H 2.93 | L 1.57 | K 2.49 | R 2.38
H19: I 2.41 | C 2.33 | D 3.99 | R 3.52 | F 2.26 | Y 2.55 | W 1.6 | T 3.28 | S 3.21 | E 3.8 | N 3.09 | A 2.03 | V 2.11 | M 2.4 | K 4.3 | L 2.68 | P 3 | Q 3.12 | G 3.16
Y18: A 3.65 | V 3.24 | T 3.94 | L 2.94 | S 4.05 | K 3.6 | F 2.5 | I 3 | E 4.26 | H 3.59 | Q 3.87 | W 2.94 | P 3.71 | G 3.78 | C 3.3 | N 4.48 | R 3.72 | D 4.14 | M 2.88
R13: P 3.58 | Y 1.95 | T 3.35 | V 2.86 | S 3.18 | N 3.35 | W 2.08 | Q 3.06 | M 2.9 | L 1.97
N17: R 2.95 | C 2.35 | H 2.45 | P 3.32 | I 1.83 | S 2.18 | Q 2.15 | W 1.96 | D 3.52 | A 2.95 | V 2.14 | M 2.35 | T 2.67 | Y 1.97 | F 1.86 | G 2.81 | K 2.63 | E 2.96 | L 2.09
F20: L 4.22 | Q 3.73 | C 3.46 | D 4.77 | G 3.54 | M 3.26 | A 4.11 | H 3.57 | R 3.24 | I 3.43 | E 3.97 | N 3.77 | T 2.99 | P 3.96 | Y 3.24 | V 3.71 | K 3.33 | S 3.79 | W 2.58
E16: Y 1.56 | C 1.93 | L 2.47 | S 2.67 | D 2.77 | G 2.11 | H 2.26 | K 2.59 | M 3.01 | F 2.13 | P 3.32 | V 2.36 | T 2.46 | Q 2.38 | N 2.62 | R 2.43 | W 1.83 | I 2.12 | A 2.19
H24: P 2.79 | N 3.5 | G 3.55 | L 2.22 | M 2.92 | A 2.85 | S 3.44 | I 2.35 | C 2.3 | Q 3.39 | W 2.98 | R 2.78 | K 3.21 | F 2.58 | V 2.38 | Y 2.32 | E 4.04 | T 3.11 | D 4.13
S14: G 3.45 | W 2.2 | P 2.24 | D 3.24 | E 2.87 | N 3.07 | L 2.72 | A 3.52 | M 2.49 | T 2.63 | F 2.57 | Q 2.31 | K 2.69 | H 2.25 | C 2.24 | V 2.11 | Y 2.02 | R 2.44 | I 2.15

Variants of: B2
Test: as above
Settings: c terminus: a fixed tail appended

Protein stability index: each site, then its substitutions
Y20: I 2.84 | H 2.42 | Q 2.88 | R 3.13 | V 2.9
L19: Q 2.65 | E 3.39 | C 2.66 | Y 2.57
R18: C 2.29 | M 2.2 | P 3.13 | I 2.42
S12: H 2.92
D21: H 2.31 | Q 2.3 | W 2.25 | E 2.47 | A 2.18
C17: P 2.62 | N 2.8
A9: Q 2.36 | R 2.17 | N 2.65 | D 3.6
Y1: L 3.84 | V 3.72 | K 3.55 | G 3.7
A24: T 2.86 | S 2.32 | K 2.43 | H 2.24 | Q 3.01 | L 2.14 | I 1.9 | N 2.79
G5: W 2.37 | V 3.17 | E 3.96 | N 3.88 | K 2.89 | R 3.12 | I 2.8 | M 2.88
D14: G 2.52 | A 1.91 | N 1.98 | P 2.12 | V 2.27 | F 2.12 | I 2.65
T16: W 1.91 | C 2.27 | E 2.79 | D 2.91 | H 2.37
F8: E 4.5 | P 4.12 | T 4.02 | G 4.09
R23: W 2.15 | H 2.87 | S 2.81 | M 2.37
D13: K 2.25 | F 1.63 | C 1.56 | W 1.65 | Y 2.11 | H 2.23 | N 2.38 | M 1.66
S4: G 3.14 | M 3.45 | C 2.16 | N 3.03 | K 3.33
P3: N 3.36 | M 2.99 | V 2.31 | S 3.27
A7: V 2.23 | C 2.31 | R 3.1 | F 1.77 | L 2.2
Y2: M 2.48 | K 4.08 | F 2.03
D6: C 2.03 | P 2.81
L22: Y 2.68 | A 2.8 | C 3.17 | F 2.64
S10: T 2.68 | M 2.16 | F 2.03 | R 2.1 | N 2.64 | C 2.01 | L 2.05 | P 2.46
G11: T 2.28 | M 1.66 | K 1.94 | D 2.74 | L 2.89
A15: G 2.87 | H 2.05 | N 2.61 | V 2.72 | Q 2.62 | Y 2.21

Reference: the supplement of paper PMC10567573
